For one substance, Kd results are on record in paper PMC4909234.

For this assay, the target named is human complement factor H (CFH) (human) (UniProt P08603). Put plainly: ELISA; […] (20 mM HEPES, 50 mM NaCl, pH 7.4) […]. Background: An ELISA detects its analyte on a solid surface through an enzyme-linked reagent.
human complement factor H (CFH) (human), sequence (P08603 19-1231): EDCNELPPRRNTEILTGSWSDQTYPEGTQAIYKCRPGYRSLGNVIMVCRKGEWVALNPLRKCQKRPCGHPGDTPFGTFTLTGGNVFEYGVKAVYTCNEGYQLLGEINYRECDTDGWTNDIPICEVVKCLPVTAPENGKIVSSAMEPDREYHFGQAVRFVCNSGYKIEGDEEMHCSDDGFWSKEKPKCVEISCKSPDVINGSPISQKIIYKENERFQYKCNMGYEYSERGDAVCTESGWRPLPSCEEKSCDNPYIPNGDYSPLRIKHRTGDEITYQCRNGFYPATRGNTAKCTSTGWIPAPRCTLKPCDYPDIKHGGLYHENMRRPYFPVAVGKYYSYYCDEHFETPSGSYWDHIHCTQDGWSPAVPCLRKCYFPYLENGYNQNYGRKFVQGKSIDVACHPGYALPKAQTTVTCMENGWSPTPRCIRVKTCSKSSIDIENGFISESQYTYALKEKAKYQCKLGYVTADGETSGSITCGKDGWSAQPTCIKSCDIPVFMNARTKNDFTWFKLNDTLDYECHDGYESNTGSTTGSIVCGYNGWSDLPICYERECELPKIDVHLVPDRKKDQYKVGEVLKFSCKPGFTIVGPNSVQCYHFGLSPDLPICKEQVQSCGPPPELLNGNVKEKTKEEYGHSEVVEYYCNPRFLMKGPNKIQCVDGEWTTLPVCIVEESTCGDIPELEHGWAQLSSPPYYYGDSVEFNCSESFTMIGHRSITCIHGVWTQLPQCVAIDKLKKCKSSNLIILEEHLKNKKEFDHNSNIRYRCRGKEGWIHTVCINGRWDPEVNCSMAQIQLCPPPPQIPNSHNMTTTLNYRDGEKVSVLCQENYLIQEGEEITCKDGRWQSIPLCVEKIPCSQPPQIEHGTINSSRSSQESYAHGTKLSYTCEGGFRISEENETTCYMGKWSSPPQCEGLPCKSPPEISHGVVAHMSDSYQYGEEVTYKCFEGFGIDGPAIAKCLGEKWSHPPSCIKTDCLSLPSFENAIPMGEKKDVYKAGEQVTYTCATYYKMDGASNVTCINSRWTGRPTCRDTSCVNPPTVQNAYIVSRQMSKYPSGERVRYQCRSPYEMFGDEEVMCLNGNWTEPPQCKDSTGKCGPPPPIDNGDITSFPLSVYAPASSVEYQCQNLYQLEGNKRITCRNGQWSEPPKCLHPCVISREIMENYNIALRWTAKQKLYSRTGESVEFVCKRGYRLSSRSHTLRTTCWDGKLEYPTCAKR

With “Recombinant BclA protein (rBclA), His-tagged (from UniProt Q81JD7 1-382) (natural protein)”, the Kd (commonly the equilibrium constant for the complex coming apart) came out at 910 nM.
